The target in series [1] is T1, RAB11A, N-terminal 6x His-tag, purified from E. coli, preloaded with BODIPY FL GDP, P62491.
T1 chain: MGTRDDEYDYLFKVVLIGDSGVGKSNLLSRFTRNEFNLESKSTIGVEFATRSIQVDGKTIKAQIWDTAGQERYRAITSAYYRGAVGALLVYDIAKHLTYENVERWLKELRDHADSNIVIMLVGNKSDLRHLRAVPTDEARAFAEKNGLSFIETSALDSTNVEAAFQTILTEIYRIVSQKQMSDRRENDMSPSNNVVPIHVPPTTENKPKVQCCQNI

In series [2] the target is ARF3, purified from E. coli, preloaded with BODIPY FL GDP, P61204.
The target in series [3] is the other GTPases tested.
Series [4] addresses T2, RAB5A, N-terminal 6x His-tag, purified from E. coli, preloaded with BODIPY FL GDP, P20339.
T2 chain: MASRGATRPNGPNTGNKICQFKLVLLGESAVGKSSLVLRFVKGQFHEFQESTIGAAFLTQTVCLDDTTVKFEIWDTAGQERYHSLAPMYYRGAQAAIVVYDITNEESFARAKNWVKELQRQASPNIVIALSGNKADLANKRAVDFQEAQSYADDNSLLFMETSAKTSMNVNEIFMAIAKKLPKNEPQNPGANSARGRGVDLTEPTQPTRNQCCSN

Sequence of ARF3, purified from E. coli, preloaded with BODIPY FL GDP, P61204 (P61204 whole entry): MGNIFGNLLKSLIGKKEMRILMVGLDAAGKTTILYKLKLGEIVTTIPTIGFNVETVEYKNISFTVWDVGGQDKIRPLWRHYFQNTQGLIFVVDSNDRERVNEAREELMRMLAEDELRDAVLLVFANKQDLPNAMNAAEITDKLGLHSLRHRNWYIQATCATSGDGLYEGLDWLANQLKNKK

B1: RABEX5, 2x HA-tagged, in HEK cell lysate (protein)
chain: MSLKSERRGIHVDQSDLLCKKGCGYYGNPAWQGFCSKCWREEYHKARQKQIQEDWELAERLQREEEEAFASSQSSQGAQSLTFSKFEEKKTNEKTRKVTTVKKFFSASSRVGSKKEIQEAKAPSPSINRQTSIETDRVSKEFIEFLKTFHKTGQEIYKQTKLFLEGMHYKRDLSIEEQSECAQDFYHNVAERMQTRGKVPPERVEKIMDQIEKYIMTRLYKYVFCPETTDDEKKDLAIQKRIRALRWVTPQMLCVPVNEDIPEVSDMVVKAITDIIEMDSKRVPRDKLACITKCSKHIFNAIKITKNEPASADDFLPTLIYIVLKGNPPRLQSNIQYITRFCNPSRLMTGEDGYYFTNLCCAVAFIEKLDAQSLNLSQEDFDRYMSGQTSPRKQEAESWSPDACLGVKQMYKNLDLLSQLNERQERIMNEAKKLEKDLIDWTDGIAREVQDIVEKYPLEIKPPNQPLAAIDSENVENDKLPPPLQPQVYAG
As to B1, the “guanine exchange activity (BODIPY-GDP fluorescence)” value (“guanine exchange activity” below) in series [1] is “neither RABEX-5, DENN2D, or DsRed displayed activity on RAB11A”.

B2: C9ORF72 isoform B, 2x HA-tagged, in HEK cell lysate (protein)
chain: MSTLCPPPSPAVAKTEIALSGKSPLLAATFAYWDNILGPRVRHIWAPKTEQVLLSDGEITFLANHTLNGEILRNAESGAIDVKFFVLSEKGVIIVSLIFDGNWNGDRSTYGLSIILPQTELSFYLPLHRVCVDRLTHIIRKGRIWMHKERQENVQKIILEGTERMEDQGQSIIPMLTGEVIPVMELLSSMKSHSVPEEIDIADTVLNDDDIGDSCHEGFLLK
Turning to B2, the “guanine exchange activity” value is “C9ORF72 isoforms A and B stimulated guanine exchange on ARF3” in series [2]; “Significant activity was not observed using both C9ORF72 isoforms on the other GTPases tested” in series [3].

B3: DENND2D, 2x HA-tagged, in HEK cell lysate (protein)
chain: MEGQVVGRVFRLFQRRLLQLRAGPPQDNSGEALKEPERAQEHSLPNFAGGQHFFEYLLVVSLKKKRSEDDYEPIITYQFPKRENLLRGQQEEEERLLKAIPLFCFPDGNEWASLTEYPRETFSFVLTNVDGSRKIGYCRRLLPAGPGPRLPKVYCIISCIGCFGLFSKILDEVEKRHQISMAVIYPFMQGLREAAFPAPGKTVTLKSFIPDSGTEFISLTRPLDSHLEHVDFSSLLHCLSFEQILQIFASAVLERKIIFLAEGLSTLSQCIHAAAALLYPFSWAHTYIPVVPESLLATVCCPTPFMVGVQMRFQQEVMDSPMEEVLLVNLCEGTFLMSVGDEKDILPPKLQDDILDSLGQGINELKTAEQINEHVSGPFVQFFVKIVGHYASYIKREANGQGHFQERSFCKALTSKTNRRFVKKFVKTQLFSLFIQEAEKSKNPPAGYFQQKILEYEEQKKQKKPREKTVK
Turning to B3, the “guanine exchange activity” value is “did not display guanine exchange activity on RAB5A” in series [4] and “neither RABEX-5, DENN2D, or DsRed displayed activity on RAB11A” in series [1].

The values above are taken from patent US20180161335.
